Source: US20120295802A1 (published 2012)
Where a chain is given by its changes, count along the chain named. In names and notes the source's numbering stands. Square brackets hold non-standard residues; d marks the D form. Ends that are not written are not given here. * marks the point of attachment. Biotin = O=C1N[C@H]2[C@H](CS[C@H]2CCCCC(=O)*)N1; pS = N[C@@H](COP(=O)(O)O)C(=O)O

T1: endogenous BACH1 (full-length) of U2OS cells (Homo sapiens (Human), UniProt Q9BX63 1-1249)
T1 construct: Endogenous full-length protein in U2OS cell lysates, detected with a rabbit anti-BACH1 antibody; The phosphorylation state in the lysate was not measured; also called full-length BACH1; wild-type BACH1
T1 sequence: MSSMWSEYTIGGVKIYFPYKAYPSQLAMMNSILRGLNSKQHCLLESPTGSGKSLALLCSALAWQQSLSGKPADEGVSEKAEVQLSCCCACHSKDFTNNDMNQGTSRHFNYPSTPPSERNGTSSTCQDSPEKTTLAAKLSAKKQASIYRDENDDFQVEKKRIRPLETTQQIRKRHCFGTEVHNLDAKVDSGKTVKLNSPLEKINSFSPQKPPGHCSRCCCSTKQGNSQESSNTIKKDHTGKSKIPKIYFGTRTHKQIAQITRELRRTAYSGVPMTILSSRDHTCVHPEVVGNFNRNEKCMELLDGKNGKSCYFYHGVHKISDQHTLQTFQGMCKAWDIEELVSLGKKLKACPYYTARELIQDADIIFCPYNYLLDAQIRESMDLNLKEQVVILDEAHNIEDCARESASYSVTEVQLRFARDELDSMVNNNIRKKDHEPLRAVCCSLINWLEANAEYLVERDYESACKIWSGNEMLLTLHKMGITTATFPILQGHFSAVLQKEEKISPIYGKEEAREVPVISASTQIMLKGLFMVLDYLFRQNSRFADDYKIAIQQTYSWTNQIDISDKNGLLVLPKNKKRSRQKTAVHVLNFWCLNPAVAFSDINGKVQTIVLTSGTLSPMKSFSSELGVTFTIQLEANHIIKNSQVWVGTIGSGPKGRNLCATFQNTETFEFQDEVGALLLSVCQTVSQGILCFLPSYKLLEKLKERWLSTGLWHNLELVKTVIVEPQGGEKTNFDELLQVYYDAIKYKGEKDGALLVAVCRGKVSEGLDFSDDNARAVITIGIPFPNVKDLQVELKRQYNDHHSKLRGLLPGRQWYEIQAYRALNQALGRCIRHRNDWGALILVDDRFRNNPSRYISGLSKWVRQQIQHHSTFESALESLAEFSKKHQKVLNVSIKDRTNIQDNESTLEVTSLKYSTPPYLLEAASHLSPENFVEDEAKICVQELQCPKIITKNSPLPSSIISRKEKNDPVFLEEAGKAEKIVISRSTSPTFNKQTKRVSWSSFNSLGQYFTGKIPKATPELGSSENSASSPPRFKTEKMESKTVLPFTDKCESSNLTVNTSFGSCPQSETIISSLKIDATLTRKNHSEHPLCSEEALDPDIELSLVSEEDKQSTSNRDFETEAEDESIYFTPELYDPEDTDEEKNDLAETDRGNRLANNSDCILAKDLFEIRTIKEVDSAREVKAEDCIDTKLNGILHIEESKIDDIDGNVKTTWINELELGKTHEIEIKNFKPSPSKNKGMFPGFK

B1: myc-tagged BRCA1 tandem BRCT domain construct (residues 1313-1863) M1775R (other, not shown: small tags and cut ends)
chain: QDPFLIGSSKQMRHQSESQGVGLSDKELVSDDEERGTGLEENNQEEQSMDSNLGEAASGCESETSVSEDCSGLSSQSDILTTQQRDTMQHNLIKLQQEMAELEAVLEQHGSQPSNSYPSIISDSSALEDLRNPEQSTSEKAVLTSQKSSEYPISQNPEGLSADKFEVSADSSTSKNKEPGVERSSPSKCPSLDDRWYMHSCSGSLQNRNYPSQEELIKVVDVEEQQLEESGPHDLTETSYLPRQDLEGTPYLESGISLFSDDPESDPSEDRAPESARVGNIPSSTSALKVPQLKVAESAQSPAAAHTTDTAGYNAMEESVSREKPELTASTERVNKRMSMVVSGLTPEEFMLVYKFARKHHITLTNLITEETTHVVMKTDAEFVCERTLKYFLGIAGGKWVVSYFWVTQSIKERKMLNEHDFEVRGDVVNGRNHQGPKRARESQDRKIFRGLEICCYGPFTNRPTDQLEWMVQLCGASVVKELSSFTLGTGVHPIVVVQPDAWTEDNGFHAIGQMCEAPVVTREWVLDSVALYQCQELDTYLIPQIPHSHY
notes: also called M1775R cancer-associated mutant
B2: myc-tagged BRCA1 tandem BRCT domain construct (residues 1313-1863) P1749R (other, not shown: small tags and cut ends)
chain: B1 chain with P437R, R463M
B3: optimal tandem BRCT domain-interacting phosphopeptide YDIpSQVFPF (peptide)
peptide: Biotin-YDI[pS]QVFPF
notes: Found by oriented peptide library screening; Conjugated to streptavidin-coated beads; also called phosphorylated biotinylated peptide

Key:
[1] = biological target: T1, endogenous BACH1 (full-length) of U2OS …; assay: co-immunoprecipitation from transfected U2OS cells (anti-myc IP, anti-BACH1 blot)
[2] = biological target: T2, myc-tagged BRCA1 tandem BRCT domain construct (from residue 1313) Y1853X (human, UniProt P38398 1313-1852); assay: pull-down of in vitro translated 35S-labelled protein on bead-immobilized peptide
T2 construct: Stop at Tyr1853; also called Y1853X (truncates the last 11 residues)
Procedure: (§1) FIG. 3A is a schematic representation of protein-peptide contacts between a BRCA1 tandem BRCT domain and the BACH1 phosphopeptide. Hydrogen bonds, Van der Waals interactions and water molecules are denoted by dashed lines, crescents, and circles respectively. In FIG. 3B, the wild-type and mutant myc-tagged BRCA1 tandem BRCT domain constructs containing the indicated mutations were analysed for binding to a bead-immobilized optimal tandem BRCT domain-interacting phosphopeptide, YDIpSQVFPF, or its non-phosphorylated counterpart. […] In FIG. 3C, U2OS cells transfected with wild-type and mutant myc-tagged BRCA 1 tandem BRCT domain constructs were analysed for association with endogenous BACH1.
(§2) An optimal phosphopeptide for binding the BRCA1 BRCTs was determined by oriented peptide library screening as described previously. This peptide was synthesized in both its phosphorylated and non-phosphorylated form with a biotin group at the N-terminus using N-α-FMOC-protected amino acids and standard BOP/HOBt coupling chemistry. These peptides were conjugated to streptavidin coated beads (Sigma-Aldrich). […] The bead-immobilized peptides (10 μL of beads) were added to 10 μL of the in vitro translated [³⁵S]-labeled protein pool in 150 μL binding buffer (50 mM Tris-HCl (pH7.6), 150 mM NaCl, 0.5% NP-40, 1 mM EDTA, 2 mM DTT, 8 μg/mL pepstatin, 8 μg mL⁻¹ aprotinin, 8 μg mL⁻¹ leupeptin, 800 μM Na3VO4, 25 mM NaF).

[3] = biological target: T3, myc-tagged BRCA1 tandem BRCT domain construct (residues 1313-1863) mutated at Lys1702 alone (human, UniProt P38398 1313-1863); assay: as above
T3 construct: also called Lys1702 mutant; K1702M
Procedure: as §1, §2

[4] = biological target: B2; assay: as above
Procedure: as §1, §2

[5] = biological target: B1; assay: as above
Procedure: as §1, §2

[6] = biological target: T4, myc-tagged BRCA1 tandem BRCT domain construct (residues 1313-1863) S1655A/K1702M (human, UniProt P38398 1313-1863); assay: as above
T4 construct: also called K1702M/S1655A
Procedure: as §1, §2

[7] = biological target: myc-tagged BRCA1 tandem BRCT domain construct (residues 1313-1863) G1738E (human, UniProt P38398 1313-1863); assay: as above
Procedure: as §1, §2

[8] = biological target: T5, myc-tagged BRCA1 tandem BRCT domain construct (residues 1313-1863) mutated at Ser1655 alone (human, UniProt P38398 1313-1863); assay: as above
T5 construct: also called Ser1655 mutant; S1655A
Procedure: as §1, §2

Measured: binding result

B1
no binding: [1]

B2
no binding: [1]

B3
not listed: [1]
no binding: all other assays above
